Target: T1, Cortactin isoform 2 (recombinant, purified from baculovirally infected insect cells)
T1 chain: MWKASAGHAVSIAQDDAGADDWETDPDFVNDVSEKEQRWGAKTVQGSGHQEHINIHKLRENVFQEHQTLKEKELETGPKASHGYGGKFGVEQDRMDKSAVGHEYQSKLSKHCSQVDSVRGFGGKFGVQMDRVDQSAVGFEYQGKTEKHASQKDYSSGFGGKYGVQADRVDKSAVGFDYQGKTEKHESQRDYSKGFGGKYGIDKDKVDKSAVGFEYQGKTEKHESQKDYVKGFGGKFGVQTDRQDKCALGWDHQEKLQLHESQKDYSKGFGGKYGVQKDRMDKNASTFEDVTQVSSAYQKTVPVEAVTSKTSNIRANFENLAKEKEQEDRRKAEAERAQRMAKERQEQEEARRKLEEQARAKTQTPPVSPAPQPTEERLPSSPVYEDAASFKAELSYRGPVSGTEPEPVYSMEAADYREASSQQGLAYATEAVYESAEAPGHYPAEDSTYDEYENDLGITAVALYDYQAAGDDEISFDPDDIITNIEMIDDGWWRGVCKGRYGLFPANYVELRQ

B1: ARG, wild type, constructed from mouse cDNA (recombinant) (protein)
chain: MGQQVGRVGEAPGLQQPQPRGIRGSSAARPSGRRRDPAGRTADAGFNVFTQHDHFASCVEDGFEGDKTGGSSPEVLHRPFGCDAESQALNEAIRWSSKENLLGATESDPNLFVALYDFVASGDNTLSITKGEKLRVLGYNQNGEWSEVRSKNGQGWVPSNYITPVNSLEKHSWYHGPVSRSAAEYLLSSLINGSFLVRESESSPGQLSISLRYEGRVYHYRINTTTDSKVYVTAESRFSTLAELVHHHSTVADGLVTTLHYPAPKCNKPTVYGVSPIHDKWEMERTDITMKHKLGGGQYGEVYVGVWKKYSLTVAVKTFKEDTMEVEEFLKEAAVMKEIKHPNLVQLLGVCTLEPPFYIVTEYMPYGNLLDYLRECSREEVTAVVLLYMATQISSAMEYLEKKNFIHRDLAARNCLVGENHVVKVADFGLSRLMTGDTYTAHAGAKFPIKWTAPESLAYNTFSIKSDVWAFGVLLWEIATYGMSPYPGIDLSQVYDLLEKGYRMEQPEGCPPKVYELMRACWKWSPADRPSFAETHQAFETMFHDSSISEEVAEELGRTASSSSVVPYLPRLPLLPSKTRTLRKQGENKENLDGGLDAAESLASSSAPAGFIRSTQASSGSPALPRKQRDKSPSSLLEDAKETCFTRDRKGGFFSSFMKKRNAPTPPKRSSSFREMENQPHKKYELTGNFSPVASLQNADGFSVAPSQQEPNLVPAKCYGGSFAQRNLCADDDSGGGGGSGTAGGGWSGITGFFTPRLIKKTLGLRAGKPTASDDTSKPFPRSNSTSSMSSGLPEQDRMAMTLPRNCQRSKLQLERTVSTSSQPEENVDRANDMLPKKSEEGAAPARERPKAKLLPRGATALPLRAPDPAITESDSPGVGVAGVAAAPKGKERNGGTRLGVAGVPEDGEQLGWSSPAKAVAVLPTTHNHKVPVLISPTLKHTPADVQLIGTDSQGNKFKLLSEHQVTSSGDKDRPRRVKPKCAPPPPPVMRLLQHPSTCSDPEEEPTAPPAGQHTPETQEGGKKAAPGPVPSSGKPGRPVMPPPQVPLPTSSISPAKMANGTAGTKVALRKTKQAAEKISADKISKEALLECADLLSSAITEPVPNSQLVDTGHQLLDYCSGYVDSIPQTRNKFAFREAVSKLELSLQELQVSSTAAGVPGTNPVLNNLLSCVQEISDVVQR
KM (steady-state in vitro kinase assay): KM of 110 nM and 60 nM for ABL and ARG, respectively
kcat (steady-state in vitro kinase assay): The kcat for ABL and ARG is 0.05 min-1
